Patent publication US20170355757A1 (Regeneron, published 2017)
Positions count from the first letter of the chain named. Names may count otherwise.

T1: monkey C5-mmh (monkey, UniProt P01031 19-1676 (human entry), limits assumed)
T1 construct: recombinant, with C-terminal myc-myc-hexahistidine tag
T1 chain: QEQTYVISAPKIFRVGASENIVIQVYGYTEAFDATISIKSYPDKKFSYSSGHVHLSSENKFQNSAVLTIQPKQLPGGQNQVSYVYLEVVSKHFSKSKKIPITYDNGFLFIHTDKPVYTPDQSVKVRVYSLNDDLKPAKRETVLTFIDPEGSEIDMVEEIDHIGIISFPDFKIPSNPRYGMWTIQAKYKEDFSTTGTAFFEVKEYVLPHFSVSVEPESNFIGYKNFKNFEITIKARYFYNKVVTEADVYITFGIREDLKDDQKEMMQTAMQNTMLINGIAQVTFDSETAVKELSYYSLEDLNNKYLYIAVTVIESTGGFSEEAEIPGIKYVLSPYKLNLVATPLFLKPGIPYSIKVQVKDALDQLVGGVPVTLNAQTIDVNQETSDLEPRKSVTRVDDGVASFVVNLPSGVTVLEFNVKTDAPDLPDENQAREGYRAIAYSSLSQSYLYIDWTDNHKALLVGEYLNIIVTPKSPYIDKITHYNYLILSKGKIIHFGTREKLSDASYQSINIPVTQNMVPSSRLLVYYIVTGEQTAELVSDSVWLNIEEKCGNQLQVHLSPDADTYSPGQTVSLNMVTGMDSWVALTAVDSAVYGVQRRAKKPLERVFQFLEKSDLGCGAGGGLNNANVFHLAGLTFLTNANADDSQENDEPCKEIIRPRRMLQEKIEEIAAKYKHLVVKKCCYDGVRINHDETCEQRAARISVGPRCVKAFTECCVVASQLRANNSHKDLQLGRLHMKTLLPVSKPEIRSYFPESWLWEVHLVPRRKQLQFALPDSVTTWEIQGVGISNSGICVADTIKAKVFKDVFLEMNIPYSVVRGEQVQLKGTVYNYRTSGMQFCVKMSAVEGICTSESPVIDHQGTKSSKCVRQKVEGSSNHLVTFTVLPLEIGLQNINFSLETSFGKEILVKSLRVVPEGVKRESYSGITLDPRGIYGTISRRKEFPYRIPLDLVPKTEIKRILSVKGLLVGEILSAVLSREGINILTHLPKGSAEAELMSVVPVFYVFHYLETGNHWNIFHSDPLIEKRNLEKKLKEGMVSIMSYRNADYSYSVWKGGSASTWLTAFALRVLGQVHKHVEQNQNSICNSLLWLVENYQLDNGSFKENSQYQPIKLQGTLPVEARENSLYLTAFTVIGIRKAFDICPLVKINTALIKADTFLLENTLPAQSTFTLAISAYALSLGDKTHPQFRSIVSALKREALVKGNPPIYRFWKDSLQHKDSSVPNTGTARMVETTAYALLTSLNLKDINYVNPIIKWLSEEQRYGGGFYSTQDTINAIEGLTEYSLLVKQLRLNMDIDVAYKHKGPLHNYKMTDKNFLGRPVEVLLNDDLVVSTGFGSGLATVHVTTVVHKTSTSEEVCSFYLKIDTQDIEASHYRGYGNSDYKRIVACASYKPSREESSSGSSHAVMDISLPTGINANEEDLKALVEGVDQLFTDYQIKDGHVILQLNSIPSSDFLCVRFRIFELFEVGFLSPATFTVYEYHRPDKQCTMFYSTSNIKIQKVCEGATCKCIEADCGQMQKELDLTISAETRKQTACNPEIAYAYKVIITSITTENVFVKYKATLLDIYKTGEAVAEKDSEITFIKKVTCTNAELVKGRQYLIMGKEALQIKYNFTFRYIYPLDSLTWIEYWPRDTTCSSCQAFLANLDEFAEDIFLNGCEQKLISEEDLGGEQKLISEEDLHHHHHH

B1: H4H12167P (antibody, human IgG4, V domains shown)
VH: QVQLVESGGGLVKPGGSLRLSCAASGFTFSDSYMSWIRQAPGKGLEWISYIGSSGNTFYYADSVKGRFTISRDNANNLLYLQMTSLRAEDTAVYYCAREEGDFWSAVDSWGQGTLVTVSS
VL: DIQLTQSPSFLSASVGDRVTITCWASQGISSYLAWYQQKPGKAPKLLIHTASTLQSGVPSRFSGSGSGTEFTLTISNLQPEDFATYYCQQLNSYPFTFGPGTKVDIK
notes: H4H: human IgG4 Fc with S108P hinge mutation
B2: H4H12163P (antibody, human IgG4, V domains shown)
VH: EVQLVESGGDLVQPGGSLRLSCAASGFTFSSYAMNWVRQGPGKGLEWVSAISGRGDSTYYADSVKGRLTISRDNSKNTLYLQMNSLRAEDTAVYYCVKEGEQLVYWYFDLWGRGTLVTVSS
VL: DIQMTQSPSSLSASVGDRVTITCRASQTISNFLHWYQQKPGKAPKLLIYAASSLQSGVPSRFSGSGSGTDFTLTISSLQPEDFSTYFCQQSYTTPLTFGGGTKVEIK
notes: as for B1
B3: H4H11683N (antibody, human IgG4, V domains shown)
VH: QVQLVESGGGVVQPGRSLRLSCVASGFTFSSYGIHWVRQAPGKGLEWVAVIWDDGNNINYSDSVKGRFIISRDNSRKTVYLQMNSLRGEDTAVYYCARDAPIAPVPDYWGQGTLVTVSS
VL: DIQMTQSPSTLSASVGDRVTITCRASQSISSWLAWYQQKPGKAPKLLIYKASSLDTGVPSRFSGSGSGTEFTLTISSLQPDDFATYYCQQYNTYSYTFGLGTKLEIK
notes: tested with H4H prefix (human IgG4 Fc with S108P hinge mutation); variable regions follow the numerical identifier; also called H2M11683N
B4: H4H12159P (antibody, human IgG4, V domains shown)
VH: QVQLVESGGGVVQPGRSLRLSCGASGFTFSTYGMHWVRQAPGKGLEWVAVIWDDGNNKYYADSVKGRFTISRDNSKNTLYLQMNSLRAEDTAVYYCARDSEVAPVGDYWGQGTLVTVSS
VL: B3 VL with T22I, S30N, S31R, D55E, T56S, T85A, T93D, L100Q
notes: as for B1
B5: H4H12177P2 (antibody, human IgG4, V domains shown)
VH: EVQLVESGGGVVQRGESLRLSCSASDFIFKDYAMYWVRQIPGKGLEWISLISGDGDTTWYGDSVKGRFTISRDNNENSLFLQMNDLRTEDTAMYYCARDMGWNFFQLQYWGQGTLVTVSS
VL: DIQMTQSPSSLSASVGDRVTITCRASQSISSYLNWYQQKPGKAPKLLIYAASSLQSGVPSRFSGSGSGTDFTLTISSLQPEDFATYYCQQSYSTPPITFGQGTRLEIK
notes: as for B1

target: T2, human C5 (human, UniProt P01031 19-1676); assay: cell-based or functional assay

Binder	IC50, inhibition of CDC of Daudi cells, 1.66% human serum
B1	2.5 nM
B2	3.4 nM
B3	1.2 nM
B4	3.2 nM
B5	2.2 nM

target: T3, African green monkey C5 (African green monkey); assay: cell-based or functional assay

Binder	IC50, inhibition of CDC of Daudi cells, 1.66% African Green monkey serum
B1	3.5 nM
B2	3.7 nM
B3	4 nM
B4	3.4 nM
B5	6.1 nM

target: human C5 R885H-mmh (human, UniProt P01031 19-1676); assay: cell-based or functional assay

Binder	IC50, inhibition of CDC of Daudi cells, C5 depleted human serum and 6.6 nM C5 Variant R885H
B1	1.9 nM
B2	2.1 nM
B3	1.3 nM
B4	1.4 nM
B5	2.4 nM

target: human C5 R885C-mmh (human, UniProt P01031 19-1676); assay: cell-based or functional assay

Binder	IC50, inhibition of CDC of Daudi cells, C5 depleted human serum and 6.6 nM C5 Variant R885C
B1	1 nM
B2	1.1 nM
B3	0.9 nM
B4	1 nM
B5	1.6 nM

target: T2, human C5; assay: cell-based or functional assay; remark: another data set of the same source

Binder	Human AP % Max Inhibition, hemolysis assay, NHS	Human AP IC50, hemolysis assay, NHS	Human CP % Max Inhibition, hemolysis assay, NHS	Human CP IC50, hemolysis assay, NHS
B1	64.8%	15.5 nM	99.9%	3.68 nM
B2	66%	20.5 nM	96.1%	2.72 nM
B3	73.2%	34 nM	98.1%	2.54 nM
B4	73.4%	17.5 nM	97.9%	2.5 nM
B5	71%	17 nM	97.5%	2.34 nM

target: T3, African green monkey C5; assay: cell-based or functional assay; remark: another data set of the same source

Binder	AGM AP % Max Inhibition, hemolysis assay, 5% serum	AGM CP % Max Inhibition, hemolysis assay, 5% serum	AGM Serum AP IC50, hemolysis assay, 5% serum	AGM Serum CP IC50, hemolysis assay, 5% serum
B1	53.4%	90.5%	69.5 nM	69.5 nM
B2	58.5%	83.2%	216 nM	69 nM
B3	88.1%	81.1%	40.8 nM	29.2 nM
B4	93.5%	93.4%	27 nM	25.8 nM
B5	8.8%	80.6%	101 nM	180 nM

target: Cynomolgus monkey C5 (cynomolgus monkey, UniProt A0A2K5U1T1 19-1676); assay: cell-based or functional assay

Binder	Cyno AP % Max Inhibition, hemolysis assay, 5% serum	Cyno CP % Max Inhibition, hemolysis assay, 5% serum	Cyno Serum AP IC50, hemolysis assay, 5% serum	Cyno Serum CP IC50, hemolysis assay, 5% serum
B1	98.3%	100%	7.6 nM	21.3 nM
B2	98.5%	96.4%	10.2 nM	16.5 nM
B3	98.9%	98.8%	7.15 nM	9 nM
B4	99.6%	99.3%	7.05 nM	7.75 nM
B5	98.1%	94.9%	8.8 nM	17.1 nM

target: T2, human C5; assay: SPR (Biacore), mAb captured, dissociation of human C5 at pH7.4 vs pH6.0, 37°C
Procedure: Effect of pH on the rate of dissociation of recombinant human C5 bound to purified anti-C5 monoclonal antibodies was determined using a real-time surface plasmon resonance biosensor using a Biacore T200 instrument. The Biacore sensor surface was first derivatized by amine coupling with a monoclonal mouse anti-human Fc antibody (GE, # BR-1008-39) to capture anti-C5 monoclonal antibodies expressed with human IgG4 Fc. All Biacore binding studies were performed using two running buffers PBS-T, pH7.4 (0.01M Na₂HPO₄/NaH₂PO₄, 0.15M NaCl, 0.05% v/v Tween-20, adjusted to pH7.4) and PBS-T, pH6.0 (0.01M Na₂HPO₄/NaH₂PO₄, 0.15M NaCl, 0.05% v/v Tween-20, adjusted to pH6.0). […] Binding dissociative half-lives (t %) were calculated from kd as: […]

Binder	t½ Ratio pH7.4/pH6.0
B1	0.2
B2	0.8
B3	1.4
B4	≤ 0.2
B5	1.3

Target: T1, monkey C5-mmh
Assay: SPR (Biacore), mAb captured, dissociation of monkey C5 at pH7.4 vs pH6.0, 25°C

Binder	t½ Ratio pH7.4/pH6.0
B1	9.2
B2	9.7
B3	0.34
B4	1.2
B5	3.7

Target: T1, monkey C5-mmh
Assay: SPR (Biacore), mAb captured, dissociation of monkey C5 at pH7.4 vs pH6.0, 37°C

Binder	t½ Ratio pH7.4/pH6.0
B1	4.4
B2	3.3
B3	0.7
B4	6.3
B5	1.5
